The labels stand for the following.
B1: P056028-D-02 (protein)
chain: MGPTPTATAAGAAVAAASAAEQAAFRLVGHRNFVRFNPRSDRFQTLAFHHVELWCADAASAAGRFSFALGVPLAARSDLSTGNSAHASLLLRSGSLSLLFTAPYAHGADAATAALPSFSAAAARRFAADHGLAVRAVALRVADAEDAFRASVAAGARPAFGPVDLGRGFRLAEVELYGDVVLRYVSYPDGGAGEPFLPGFEGVASPGAADYGLSRFDHIVGNVPELAPAAAYMAGFTGFHEFAEFTTEDVGTTESGLNSMALANNSENVLLPLNEPVHGTKRRSQIQTFLDHHGGPGVQHIALASDDVLRTLREMRARSAMGGFEFLPPPLSDYYDGVRKCAGDVLTEAQINECQELGVMVDRDDEGVLLQIFTKPVGDRPTFFLEIIQRIGCMEKDEKGQEYQKGGCGGFGKGNFGQLFKSIEDYEKSLEAKQAAAAATAQGS
modifications: Zea mays variant form created by artificial means.
B2: P056028-E-10 (protein)
chain: B1 chain with L182M, G191A, P206Q, K340R
modifications: Zea mays variant form created by artificial means.
B3: P056028-E-03 (protein)
chain: B1 chain with T45A, G191A, K340R, G417S
modifications: Zea mays variant form created by artificial means.
B4: P056028-D-06 (protein)
chain: B1 chain with L182M, G191A, P206Q, Y211L, S214N, K340R, I387L, G417S
modifications: Zea mays variant form created by artificial means.
B5: P056028-E-07 (protein)
chain: B1 chain with G191A, Y211L, K340R, G417Q, Q434R
modifications: Zea mays variant form created by artificial means.
B6: P056028-E-06 (protein)
chain: B1 chain with G191A, E244K, M394K
modifications: Zea mays variant form created by artificial means.
B7: P056028-E-11 (protein)
chain: B1 chain with P206S, K340R
modifications: Zea mays variant form created by artificial means.
B8: P056028-D-05 (protein)
chain: B1 chain with G191A, P206S, E356R, G417S
modifications: Zea mays variant form created by artificial means.
B9: P056028-E-09 (protein)
chain: B1 chain with P206Q
modifications: Zea mays variant form created by artificial means.
B10: P056028-E-08 (protein)
chain: B1 chain with G191A, K340R, E356R
modifications: Zea mays variant form created by artificial means.
B11: P056028-D-04 (protein)
chain: B1 chain with L182M, G191A, Y211L, S214N, K340R, G417S
modifications: Zea mays variant form created by artificial means.
B12: P056028-D-09 (protein)
chain: B1 chain with K340R, E356K
modifications: Zea mays variant form created by artificial means.
B13: P056028-E-05 (protein)
chain: B1 chain with P206S, K340R, G417Q
modifications: Zea mays variant form created by artificial means.
B14: P056028-D-07 (protein)
chain: B1 chain with G191A, P206Q, L385I
modifications: Zea mays variant form created by artificial means.

As a reminder, the kcat is the number of substrate molecules converted per active site and unit of time at saturation.

Residue numbers refer to the chain shown, from its start.

The first data set relates to 4-hydroxyphenylpyruvate dioxygenase (HPPD). In words: ON rate ratio: HPPD reaction rate with vs without inhibitor in the 70 to 90 second interval. It is filed as biochemical, Z. mays. The note with it: Table 7; tembotrione; combinatorial variants. In a few lines:
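Time courses of HPPD reactions, 60 or 120 nM enzyme with 100 μM HPP substrate, run with and without 4 μM inhibitor (e.g. mesotrione, tembotrione). Value is the rate with inhibitor over rate without, taken over 70–90 s; higher ratio reflects slower kON.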
With B1, the ON rate ratio came to 0.730.
Same read-out and setting: the same measure for B2: 0.702; for B3: 0.735; for B4: 0.731.
Still for that read-out and setting: the same measure for B5: 0.585; for B6: 0.346.
Still for that read-out and setting: the same measure for B7: 0.721.
As to B8, the ON rate ratio is reported as 0.730.
Still for that read-out and setting: the same measure for B9: 0.676.
In the case of B10, the ON rate ratio stood at 0.685.
Same read-out and setting: the same measure for B11: 0.696; for B12: 0.652; for B13: 0.704.
On the same count and under the same terms, as for B14, the figure is 0.775.

Another data set shares this test system. In words: Insensitivity parameter (ON × OFF) and trait fitness (ON × OFF × kcat/KM or × kcat). It is filed as biochemical, Z. mays. The arrangement: key to ON × OFF / Insensitivity, mesotrione, ON × OFF / Insensitivity, tembotrione, ON × OFF / Insensitivity, topramezone, ON × OFF / Insensitivity, sulcotrione, ON × OFF / Insensitivity, isoxaflutole (DKN), ON × OFF: insensitivity = ON rate ratio × OFF rate ratio (surrogate for KD). The note with it: Megatable 3; shuffled variants. The gist of the method: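 Calculated, not measured directly: ON rate ratio × OFF rate ratio gives an insensitivity parameter serving as a KD surrogate.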
Turning to B1, the “ON × OFF” value was 0.218 and the “ON × OFF × kcat” value was 5.31.
For B2 the same measures were 0.238 and 2.73.
Take B3: the “ON × OFF” value was determined as 0.303 and the “ON × OFF × kcat” value was found to be 5.10.
For B4 the same measures were 0.310 and 3.07.
For B5 the same measures were 0.153 and 3.08.
In the case of B6, the “ON × OFF” value is given as 0.064 and the “ON × OFF × kcat” value was 1.76.
For B7 the same measures were 0.219 and 3.70.
In the same order, the values of B8 are 0.371 and 4.66.
In the same order, the values of B9 are 0.208 and 3.10.
As to B10, the “ON × OFF” value is 0.281 and the “ON × OFF × kcat” value stood at 3.55.
For B11, the “ON × OFF” value is recorded as 0.137 and the “ON × OFF × kcat” value stood at 1.71.
Regarding B12, the “ON × OFF” value was 0.242 and the “ON × OFF × kcat” value worked out at 3.16.
In the same order, the values of B13 are 0.229 and 3.48.
In the same order, the values of B14 are 0.286 and 2.60.

Still in this data set, the particulars now being: Table 7; tembotrione; combinatorial variants.
In the case of B1, the “ON × OFF” value turned out to be 0.218 and the “ON × OFF × kcat” value came out at 5.31.
For B2 the same measures were 0.238 and 2.73.
In the same order, the values of B3 are 0.303 and 5.10.
B4: the “ON × OFF” value came out at 0.310 and the “ON × OFF × kcat” value stood at 3.07.
For B5 the same measures were 0.153 and 3.08.
For B6 the same measures were 0.064 and 1.76.
In the same order, the values of B7 are 0.219 and 3.70.
With B8, the “ON × OFF” value is 0.371 and the “ON × OFF × kcat” value was found to be 4.66.
For B9 the same measures were 0.208 and 3.10.
In the same order, the values of B10 are 0.281 and 3.55.
In the same order, the values of B11 are 0.137 and 1.71.
With B12, the “ON × OFF” value is on record as 0.242 and the “ON × OFF × kcat” value came to 3.16.
In the same order, the values of B13 are 0.229 and 3.48.
For B14 the same measures were 0.286 and 2.60.

A further data set shares this test system. In words: Estimate of kcat from initial rate at saturating hydroxyphenylpyruvate without inhibitor (ON rate ratio assay). The class given is biochemical, Z. mays. Particulars: Megatable 3; shuffled variants. The gist of the method:
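Reactions used 60 or 120 nM HPPD and saturating 100 μM hydroxyphenylpyruvate without inhibitor. kcat was estimated from the initial rate at the known enzyme concentration.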
For the molecule B1, the kcat was 0.405 s⁻¹.
With B2, the kcat was 0.192 s⁻¹.
Still for that read-out and setting: as for B3, the figure is 0.282 s⁻¹; as for B4, 0.165 s⁻¹; as for B5, 0.343 s⁻¹.
On the same count and under the same terms, as for B6, the figure is 0.47 s⁻¹.
Still for that read-out and setting: as for B7, the figure is 0.282 s⁻¹; as for B8, 0.21 s⁻¹.
As for B9, the kcat is 0.248 s⁻¹.
Still for that read-out and setting: the same measure for B10: 0.21 s⁻¹; for B11: 0.207 s⁻¹.
Still for that read-out and setting: the same measure for B12: 0.217 s⁻¹; for B13: 0.253 s⁻¹.
On the same count and under the same terms, the same measure for B14: 0.152 s⁻¹.

The data set is the same for the next values; noted with them: Table 7; combinatorial variants.
Turning to B1, the kcat is 0.405 s⁻¹.
On the same count and under the same terms, as for B2, the figure is 0.192 s⁻¹.
Still for that read-out and setting: as for B3, the figure is 0.282 s⁻¹; as for B4, 0.165 s⁻¹; as for B5, 0.343 s⁻¹.
Still for that read-out and setting: as for B6, the figure is 0.47 s⁻¹.
Take B7: the kcat was 0.282 s⁻¹.
Same read-out and setting: the same measure for B8: 0.21 s⁻¹; for B9: 0.248 s⁻¹.
The same measure, in the same setting: the same measure for B10: 0.21 s⁻¹.
As to B11, the kcat is 0.207 s⁻¹.
For the molecule B12, the kcat was 0.217 s⁻¹.
Still for that read-out and setting: as for B13, the figure is 0.253 s⁻¹.
The same measure, in the same setting: as for B14, the figure is 0.152 s⁻¹.

For another data set the test system is unchanged. In words: OFF rate ratio: release of inhibitor from pre-formed enzyme-inhibitor complex. It is filed as biochemical, Z. mays. Particulars: Table 7; tembotrione; combinatorial variants. The gist of the method: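 HPPD (7.2 μM) pre-incubated 1 h at RT with inhibitor (8 μM), then diluted into 25 mM Hepes pH 7, 2 mM ascorbate, 10 μM FeSO4, 100 μM HPP, 50 nM HGD; A320 followed 12 min. Ratio = steady-state rate with inhibitor over initial rate of inhibitor-free enzyme.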
With B1, the OFF rate ratio is reported as 0.299.
Regarding B2, the OFF rate ratio is 0.339.
Same read-out and setting: as for B3, the figure is 0.412.
The same measure, in the same setting: as for B4, the figure is 0.424; as for B5, 0.262; as for B6, 0.186.
On the same count and under the same terms, as for B7, the figure is 0.304.
Take B8: the OFF rate ratio was 0.508.
Still for that read-out and setting: the same measure for B9: 0.308; for B10: 0.410; for B11: 0.197.
For B12, the OFF rate ratio is listed as 0.371.
Same read-out and setting: the same measure for B13: 0.325.
Same read-out and setting: the same measure for B14: 0.370.

The values are drawn from patent US11015206B2, “Compositions and methods comprising sequences having hydroxyphenylpyruvate dioxygenase (HPPD) activity” (PIONEER HI-BRED INTERNATIONAL, INC., priority 2014, dated 2021).
